In patent publication US20200317779A1:
Substitutions are numbered along the chain they refer to. Each block holds one binder with its values, some of them ahead of it.

Key:
[1] = target: recombinant cynomolgus monkey CD3ε/δ heterodimer (cynomolgus monkey) (UniProt Q95LI5); test: ELISA, coated CD3ε/δ
[2] = target: recombinant human CD3ε/δ heterodimer (human) (UniProt P07766); test: ELISA, coated CD3ε/δ
recombinant human CD3ε/δ heterodimer (human), sequence (P07766 23-126, stated change not applied, chain 1 of 2): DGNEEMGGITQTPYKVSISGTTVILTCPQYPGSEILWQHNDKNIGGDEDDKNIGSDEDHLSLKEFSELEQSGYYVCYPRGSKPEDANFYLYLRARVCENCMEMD
recombinant human CD3ε/δ heterodimer (human), sequence (P04234 22-105, stated change not applied, chain 2 of 2, further chain): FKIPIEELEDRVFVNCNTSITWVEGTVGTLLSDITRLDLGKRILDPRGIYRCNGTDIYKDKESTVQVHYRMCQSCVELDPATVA

recombinant cynomolgus monkey CD3ε/δ heterodimer (cynomolgus monkey), sequence (Q95LI5 22-117, stated change not applied, chain 1 of 2): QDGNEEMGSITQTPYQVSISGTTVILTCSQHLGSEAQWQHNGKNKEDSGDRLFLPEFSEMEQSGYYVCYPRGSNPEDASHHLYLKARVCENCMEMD
recombinant cynomolgus monkey CD3ε/δ heterodimer (cynomolgus monkey), sequence (Q95LI8 22-105, stated change not applied, chain 2 of 2, further chain): as the sequence (P04234 22-105, stated change not applied, chain 2 of 2, further chain) above, with I5V, N15K, I20V, S32T, D33N, I34N, T64A, S74N, V83L counted along it

- Absorbance (450 nm) [1]: 0.071
- Absorbance (450 nm) [2]: 0.099
B1: C02 (antibody, human IgG1, lambda, L234A L235A, V domains shown)
VH: EVQLVESGGGLVQPGGSLKLSCAASGFTFNTYAMNWVRQASGKGLEWVGRIRSKYNNYATYYADSVKDRFTISRDDSQSTAYLQMNSLKTEDTAVYYCVRHGNFGNSYVSWFAYWGQGTLVTVSS
VL: QAVVTQEPSLTVSPGGTVTLTCRSSTGAVTTSNYANWFQQKPGQAPRTLIYGTNKRAPWTPARFSGSLLGDKAALTLSGAQPEDEAEYYCALWYSNLWVFGGGTKLTVLG

- Absorbance (450 nm) [1]: 0.128
- Absorbance (450 nm) [2]: 0.107
B2: C05 (antibody, human IgG1, lambda, L234A L235A, V domains shown)
VH: B1 VH
VL: B1 VL with T48G, D71G

- Absorbance (450 nm) [1]: 0.11
- Absorbance (450 nm) [2]: 0.136
B3: D06 (antibody, human IgG1, lambda, L234A L235A, V domains shown)
VH: B1 VH with A81L
VL: B1 VL with T48G

- Absorbance (450 nm) [1]: 0.089
- Absorbance (450 nm) [2]: 0.14
B4: C03 (antibody, human IgG1, lambda, L234A L235A, V domains shown)
VH: B1 VH
VL: B1 VL with Y51G, D71G

- Absorbance (450 nm) [1]: 0.083
- Absorbance (450 nm) [2]: 0.108
B5: C06 (antibody, human IgG1, lambda, L234A L235A, V domains shown)
VH: B1 VH
VL: B1 VL with T48G

- Absorbance (450 nm) [1]: 0.065
- Absorbance (450 nm) [2]: 0.098
B6: A04 (antibody, human IgG1, lambda, L234A L235A, V domains shown)
VH: B1 VH with Q78K, S79N
VL: B1 VL with Y51G

- Absorbance (450 nm) [1]: 0.084
- Absorbance (450 nm) [2]: 0.096
B7: E09 (antibody, human IgG1, lambda, L234A L235A, V domains shown)
VH: B1 VH with G49A, Q78K, S79N
VL: B1 VL with F38V, D71G

- Absorbance (450 nm) [1]: 0.078
- Absorbance (450 nm) [2]: 0.105
B8: E14 (antibody, human IgG1, lambda, L234A L235A, V domains shown)
VH: B1 VH with G49A, Q78K, S79N
VL: B1 VL with F38V, T48G

- Absorbance (450 nm) [1]: 0.141
- Absorbance (450 nm) [2]: 0.167
B9: A05 (antibody, human IgG1, lambda, L234A L235A, V domains shown)
VH: B1 VH with Q78K, S79N
VL: B1 VL with T48G, D71G

- Absorbance (450 nm) [1]: 0.179
- Absorbance (450 nm) [2]: 0.179
B10: C13 (antibody, human IgG1, lambda, L234A L235A, V domains shown)
VH: B1 VH
VL: B1 VL with F38V, T48G, D71G

- Absorbance (450 nm) [1]: 0.098
- Absorbance (450 nm) [2]: 0.152
B11: A01 (antibody, human IgG1, lambda, L234A L235A, V domains shown)
VH: B1 VH with Q78K, S79N
VL: B1 VL with D71G

- Absorbance (450 nm) [1]: 0.101
- Absorbance (450 nm) [2]: 0.121
B12: D05 (antibody, human IgG1, lambda, L234A L235A, V domains shown)
VH: B1 VH with A81L
VL: B1 VL with T48G, D71G

- Absorbance (450 nm) [1]: 0.113
- Absorbance (450 nm) [2]: 0.117
B13: D10 (antibody, human IgG1, lambda, L234A L235A, V domains shown)
VH: B1 VH with A81L
VL: B1 VL with F38V

- Absorbance (450 nm) [1]: 0.078
- Absorbance (450 nm) [2]: 0.1
B14: E01 (antibody, human IgG1, lambda, L234A L235A, V domains shown)
VH: B1 VH with G49A, Q78K, S79N
VL: B1 VL with D71G

- Absorbance (450 nm) [1]: 0.099
- Absorbance (450 nm) [2]: 0.074
B15: E08 (antibody, human IgG1, lambda, L234A L235A, V domains shown)
VH: B1 VH with G49A, Q78K, S79N
VL: B1 VL with T48G, Y51G

- Absorbance (450 nm) [1]: 0.108
- Absorbance (450 nm) [2]: 0.14
B16: A06 (antibody, human IgG1, lambda, L234A L235A, V domains shown)
VH: B1 VH with Q78K, S79N
VL: B1 VL with T48G

- Absorbance (450 nm) [1]: 0.086
- Absorbance (450 nm) [2]: 0.112
B17: E06 (antibody, human IgG1, lambda, L234A L235A, V domains shown)
VH: B1 VH with G49A, Q78K, S79N
VL: B1 VL with T48G

- Absorbance (450 nm) [1]: 0.134
- Absorbance (450 nm) [2]: 0.138
B18: D11 (antibody, human IgG1, lambda, L234A L235A, V domains shown)
VH: B1 VH with A81L
VL: B1 VL with F38V, Y51G, D71G

- Absorbance (450 nm) [1]: 0.098
- Absorbance (450 nm) [2]: 0.122
B19: D09 (antibody, human IgG1, lambda, L234A L235A, V domains shown)
VH: B1 VH with A81L
VL: B1 VL with F38V, D71G

- Absorbance (450 nm) [1]: 0.114
- Absorbance (450 nm) [2]: 0.095
B20: D12 (antibody, human IgG1, lambda, L234A L235A, V domains shown)
VH: B1 VH with A81L
VL: B1 VL with F38V, Y51G

- Absorbance (450 nm) [1]: 0.113
- Absorbance (450 nm) [2]: 0.149
B21: D14 (antibody, human IgG1, lambda, L234A L235A, V domains shown)
VH: B1 VH with A81L
VL: B1 VL with F38V, T48G

- Absorbance (450 nm) [1]: 0.075
- Absorbance (450 nm) [2]: 0.098
B22: E11 (antibody, human IgG1, lambda, L234A L235A, V domains shown)
VH: B1 VH with G49A, Q78K, S79N
VL: B1 VL with F38V, Y51G, D71G

- Absorbance (450 nm) [1]: 0.067
- Absorbance (450 nm) [2]: 0.087
B23: E04 (antibody, human IgG1, lambda, L234A L235A, V domains shown)
VH: B1 VH with G49A, Q78K, S79N
VL: B1 VL with Y51G

- Absorbance (450 nm) [1]: 0.114
- Absorbance (450 nm) [2]: 0.139
B24: E13 (antibody, human IgG1, lambda, L234A L235A, V domains shown)
VH: B1 VH with G49A, Q78K, S79N
VL: B1 VL with F38V, T48G, D71G

- Absorbance (450 nm) [1]: 0.115
- Absorbance (450 nm) [2]: 0.109
B25: E07 (antibody, human IgG1, lambda, L234A L235A, V domains shown)
VH: B1 VH with G49A, Q78K, S79N
VL: B1 VL with T48G, Y51G, D71G

- Absorbance (450 nm) [1]: 0.07
- Absorbance (450 nm) [2]: 0.095
B26: E02 (antibody, human IgG1, lambda, L234A L235A, V domains shown)
VH: B1 VH with G49A, Q78K, S79N
VL: B1 VL

- Absorbance (450 nm) [1]: 0.074
- Absorbance (450 nm) [2]: 0.096
B27: C10 (antibody, human IgG1, lambda, L234A L235A, V domains shown)
VH: B1 VH
VL: B1 VL with F38V

- Absorbance (450 nm) [1]: 0.532
- Absorbance (450 nm) [2]: 0.569
B28: D13 (antibody, human IgG1, lambda, L234A L235A, V domains shown)
VH: B1 VH with A81L
VL: B1 VL with F38V, T48G, D71G

- Absorbance (450 nm) [1]: 0.065
- Absorbance (450 nm) [2]: 0.083
B29: E10 (antibody, human IgG1, lambda, L234A L235A, V domains shown)
VH: B1 VH with G49A, Q78K, S79N
VL: B1 VL with F38V

- Absorbance (450 nm) [1]: 0.073
- Absorbance (450 nm) [2]: 0.15
B30: D02 (antibody, human IgG1, lambda, L234A L235A, V domains shown)
VH: B1 VH with A81L
VL: B1 VL

- Absorbance (450 nm) [1]: 0.095
- Absorbance (450 nm) [2]: 0.107
B31: C14 (antibody, human IgG1, lambda, L234A L235A, V domains shown)
VH: B1 VH
VL: B1 VL with F38V, T48G

- Absorbance (450 nm) [1]: 0.067
- Absorbance (450 nm) [2]: 0.093
B32: C04 (antibody, human IgG1, lambda, L234A L235A, V domains shown)
VH: B1 VH
VL: B1 VL with Y51G

- Absorbance (450 nm) [1]: 0.064
- Absorbance (450 nm) [2]: 0.088
B33: E12 (antibody, human IgG1, lambda, L234A L235A, V domains shown)
VH: B1 VH with G49A, Q78K, S79N
VL: B1 VL with F38V, Y51G

- Absorbance (450 nm) [1]: 0.261
- Absorbance (450 nm) [2]: 0.288
B34: C11 (antibody, human IgG1, lambda, L234A L235A, V domains shown)
VH: B1 VH
VL: B1 VL with F38V, Y51G, D71G

- Absorbance (450 nm) [1]: 0.065
- Absorbance (450 nm) [2]: 0.087
B35: C12 (antibody, human IgG1, lambda, L234A L235A, V domains shown)
VH: B1 VH
VL: B1 VL with F38V, Y51G

- Absorbance (450 nm) [1]: 0.075
- Absorbance (450 nm) [2]: 0.109
B36: C09 (antibody, human IgG1, lambda, L234A L235A, V domains shown)
VH: B1 VH
VL: B1 VL with F38V, D71G

- Absorbance (450 nm) [1]: 0.072
- Absorbance (450 nm) [2]: 0.091
B37: D04 (antibody, human IgG1, lambda, L234A L235A, V domains shown)
VH: B1 VH with A81L
VL: B1 VL with Y51G

- Absorbance (450 nm) [1]: 0.068
- Absorbance (450 nm) [2]: 0.085
B38: E05 (antibody, human IgG1, lambda, L234A L235A, V domains shown)
VH: B1 VH with G49A, Q78K, S79N
VL: B1 VL with T48G, D71G

- Absorbance (450 nm) [1]: 0.099
- Absorbance (450 nm) [2]: 0.136
B39: D01 (antibody, human IgG1, lambda, L234A L235A, V domains shown)
VH: B1 VH with A81L
VL: B1 VL with D71G

- Absorbance (450 nm) [1]: 0.13
- Absorbance (450 nm) [2]: 0.159
B40: D03 (antibody, human IgG1, lambda, L234A L235A, V domains shown)
VH: B1 VH with A81L
VL: B1 VL with Y51G, D71G

- Absorbance (450 nm) [1]: 0.076
- Absorbance (450 nm) [2]: 0.134
B41: E03 (antibody, human IgG1, lambda, L234A L235A, V domains shown)
VH: B1 VH with G49A, Q78K, S79N
VL: B1 VL with Y51G, D71G
